Measurements as given in patent publication US20220235138A1, “CAR-T CELLS TARGETING IL-1RAP AND THEIR USE IN ACUTE MYELOID LEUKEMIA (AML)” (ETABLISSEMENT FRANCAIS DU SANG, priority 2019, published 2022).
Where “and” joins values, the source holds several entries; their conditions need not be identical. Equal entries are not always repeated.

Columns and labels:
IL-1RAP [1] = assay: Immunostaining of FDA standard frozen normal tissue array; format: binding, human; design: key to Staining intensity (0 to 3+): negative (0); weak staining (1+); moderate staining (2+); strong staining (3+); settings: for Staining intensity (0 to 3+): replicates
Description: (§1) FIG. 13: (A) Tissue microarray. Representative #A3C3 staining of an US Food and Drug Administration standard frozen tissue array, including 90 tissue cores (30 organs) of 3 individual donors per organ (US Biomax, Rockville, Md., USA). Immunostaining was detected using the UltraView Universal DAB Detection Kit (Ventana, USA). Images were acquired and analyzed with NDP.view 2.0 software. […] (Scale bars, 100 μm.) High IL-1RAP (KU812) or negative (Raji)-expressing cell lines were respectively used as positive or negative controls. (B) IL-1RAP R&D (red) or #A3C3 (blue) staining of HMEC-1 dermal endothelial cell line. Isotype IgG1 (gray) is depicted as overlay. RFI is provided for both staining.
In order to study specific or non-target tissue binding, FDA standard frozen tissue arrays, including 90 tissue cores (30 organs) of 3 individual donors per organ (US Biomax, Rockville, United States) were incubated as previously described. Immunostaining was detected using UltraView Universal DAB Detection Kit (Ventana, USA). Images were acquired and analyzed with NDP.view 2 software. High IL-1RAP (KU812) or negative (Raji) expressing cell lines were respectively used as positive or negative controls. The staining intensity was graduated as follows: negative (0), weak staining (1+), moderate staining (2+), or strong staining (3+). […]

IL-1RAP [2] = assay: Western blotting and cell surface staining of AML cell lines; format: binding, human
Description: Whole cellular lysates of different AML or CML (positive control) hematopoietic cell lines were separated by polyacrylamide gel electrophoresis and electrotransferred onto polyvinylidene difluoride membranes. Membranes were probed overnight with primary IL-1RAP #A3C3 (diluted at 1:20). Twenty micrograms of protein were electrophoresed on sodium dodecyl-sulfate polyacrylamide gels (SDS-PAGE), and then sonicated protein fractions were suspended in RIPA buffer supplemented with a protease inhibitor cocktail (complete Mini EDTA-free; Roche, Bale, Switzerland). Protein load in the western blot lane was evaluated with β-actin mAb staining (1:1000, clone AC15, #A5441, Sigma-Aldrich). Immunodetection staining was performed with a secondary polyclonal antibody sheep anti-mouse IgG (#515-035-062, Jackson). Enhanced chemiluminescence detection reagents allowed detection with a camera and Bio-1D software (Vilber-Lourmat, Collegien, France).
IL-1RAP cell surface staining of different hematopoietic AML cell lines was performed, using #A3C3 mAb and IL-1RAP murine mAb as staining comparison.
Relative Fluorescence Intensity (RFI) between IL-1RAP staining and isotype was calculated. IL-1RAP+ (KU812) or IL-1RAP-(Raji) cell lines were used as positive or negative controls respectively.

[3] = system: healthy hematopoietic cells (HSCs, monocytes); assay: IL-1RAP cell surface staining of healthy donor peripheral blood and bone marrow cells; format: binding
Description: (A) IL-1RAP cell surface expression on peripheral blood (left) or bone marrow (right) cells from healthy donors (n=5). SSC-A/CD45+ allowed discrimination of subpopulations as lymphocytes (SSC-A low), monocytes (CD33+), granulocytes (SSC-A high), or HSCs (CD33−/CD34+). RFI was calculated from isotype staining and provided in each window. (B) Representative (1 of 3) IL-1RAP staining of whole human cord blood cells. IL-1RAP staining is provided for whole CD34+, CD34+/CD38−, and CD34+/CD38+ HSC cord blood subpopulations. (C) IL-1RAP-positive cells among CD34+ cells in cord blood (CB, n=5) or bone marrow (BM) from healthy donors (n=5) compared to CD34+ cells from the BM (n=10) or peripheral blood (PB, n=10) from CML patients. […] Percentages were calculated using absolute cell number determined using Trucount tubes based on 5000 fluorescent-bead cytometry acquisition. (F) Left, Gating strategy and analysis for absolute count of CID AP1903-induced cell death. […] The quantification was performed after acquiring 5000 fluorescent beads. Killing efficiency was normalized to control cells (untreated cells). Cell killing was calculated as follows: % Dead cells=[1−(absolute number of viable cells in AP1903-treated cells/absolute number of viable cells in untreated cells)]×100. (D) Absolute percentage of mortality. 24 h or 48 h C0 or IL-1RAP CAR (gated on CD3+/CD19+) T cell CID exposure. […]

[4] = system: HMEC-1 endothelial cell line; assay: Flow cytometry staining of HMEC-1 dermal endothelial cell line; format: binding, human; settings: microvascular HMEC-1 endothelial cell line
Description: as §1
In order to predict off-target toxicity, we used the #A3C3 mAb to investigate IL-1RAP expression using a tissue macroarray (TMA) of 30 normal human tissues.

Chain of IL-1RAP (Q9NPH3 21-570): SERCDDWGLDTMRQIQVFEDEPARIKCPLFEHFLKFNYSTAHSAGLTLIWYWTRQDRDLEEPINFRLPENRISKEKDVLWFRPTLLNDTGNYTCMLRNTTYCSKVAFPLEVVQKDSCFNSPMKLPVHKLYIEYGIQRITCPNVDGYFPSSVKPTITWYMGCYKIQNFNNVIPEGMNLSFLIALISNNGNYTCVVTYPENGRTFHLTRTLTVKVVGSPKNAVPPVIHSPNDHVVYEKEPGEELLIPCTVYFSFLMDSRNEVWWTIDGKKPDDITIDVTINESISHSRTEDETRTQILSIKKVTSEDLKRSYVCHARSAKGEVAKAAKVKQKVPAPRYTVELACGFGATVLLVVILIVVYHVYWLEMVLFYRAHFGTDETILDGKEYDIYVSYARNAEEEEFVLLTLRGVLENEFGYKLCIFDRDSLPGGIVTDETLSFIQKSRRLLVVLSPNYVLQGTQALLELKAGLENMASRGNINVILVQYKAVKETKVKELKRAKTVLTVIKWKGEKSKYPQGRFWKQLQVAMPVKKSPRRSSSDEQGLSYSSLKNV

B1: #A3C3: mouse anti-hIL-1RAP monoclonal antibody generated by standard hybridoma technique; VH SEQ ID No 2, VL SEQ ID No 4 (antibody, V domains shown)
VH: MGWSCIILFLVATATGVNSQVQLQQPGAELMMPGASVKVSCEASGYTFTDSWMHWVKQRPGQGLEWIGAIDPSDSYTTYNQKFTGKATLSVDESSNTAYMQLSSLTSEDSAVYYCARYYSGSNYISPFPYWGQGTLVTVSA
VL: MESQIQVFVFVFLWLSGVDGDIVMTQSHKFMSTSVGDRVTITCKASLDVSTAVAWYQQKPGQSPKLLIYSASYRYTGVPDRFTGSGSGTDFTFTISSVQAEDLAVYYCQQHYSPPFTFGSGTNLEIK
modifications: Amino acid sequence of chain H (VH) of murine scFv anti-IL-1RAP; Amino acid sequence of chain K (VL) of murine scFv anti-IL-1RAP
IL-1RAP [1]; Adrenal gland
  Staining intensity (0 to 3+): 0
IL-1RAP [1]; Cerebellum tissue
  Staining intensity (0 to 3+): 0
IL-1RAP [1]; Colon
  Comments: stained epithelial cells: Epithelial cells (~30%);
  Comments: stained inflammatory elements: (100%)
  Staining intensity (0 to 3+): 3+
IL-1RAP [1]; Esophagus
  Staining intensity (0 to 3+): 0
IL-1RAP [1]; Heart
  Staining intensity (0 to 3+): 0
IL-1RAP [1]; Kidney
  Staining intensity (0 to 3+): 0
IL-1RAP [1]; Liver
  Staining intensity (0 to 3+): 0
IL-1RAP [1]; Lung
  Comments: stained elements: Few inflammatory elements
  Staining intensity (0 to 3+): 2+
IL-1RAP [1]; Lymph node
  Comments: stained endothelial cells: ~30% of endothelial cells
  Staining intensity (0 to 3+): 2+ and 1+
IL-1RAP [1]; Ovary
  Staining intensity (0 to 3+): 0
IL-1RAP [1]; Pancreas
  Staining intensity (0 to 3+): 1+
IL-1RAP [1]; Peripheral nerve
  Staining intensity (0 to 3+): 0
IL-1RAP [1]; Pituitary gland
  Staining intensity (0 to 3+): 0
IL-1RAP [1]; Placenta
  Comments: stained cytotrophoblast cells: Cytotrophoblast cells (~10%)
  Staining intensity (0 to 3+): 0
IL-1RAP [1]; Prostate
  Comments: stained endothelial cells: ~10% of endothelial cells
  Staining intensity (0 to 3+): 1+ (2×) and 0 (4×)
IL-1RAP [1]; Salivary gland
  Staining intensity (0 to 3+): 0
IL-1RAP [1]; Skeletal muscle 1
  Comments: stained endothelial cells: ~10% of endothelial cells
IL-1RAP [1]; Skeletal muscle, first listing
  Staining intensity (0 to 3+): 1+ and 0 (2×)
IL-1RAP [1]; Skeletal muscle, second listing
  Staining intensity (0 to 3+): 0
IL-1RAP [1]; Skin
  Staining intensity (0 to 3+): 0
IL-1RAP [1]; Small intestine
  Comments: stained epithelial cells: Epithelial cells (~30%);
  Comments: stained inflammatory elements: (100%)
  Staining intensity (0 to 3+): 2+ and 0 and 1+
IL-1RAP [1]; Smooth muscle
  Staining intensity (0 to 3+): 0
IL-1RAP [1]; Spinal cord
  Staining intensity (0 to 3+): 0
IL-1RAP [1]; Spleen
  Comments: stained elements: Necrotic elements
  Staining intensity (0 to 3+): 3+
IL-1RAP [1]; Stomach 1
  Comments: stained epithelial cells: cells <10%
  Comments: stained gastric mucosa cells: (~10%); few epithelial
IL-1RAP [1]; Stomach
  Staining intensity (0 to 3+): 1+ and 0 (2×)
IL-1RAP [1]; Testis
  Staining intensity (0 to 3+): 0
IL-1RAP [1]; Thyroid gland
  Staining intensity (0 to 3+): 0
IL-1RAP [1]; Ureter
  Staining intensity (0 to 3+): 0
IL-1RAP [1]; Uterine cervix
  Staining intensity (0 to 3+): 0
IL-1RAP [2]
  staining of AML cell lines expressing IL-1RAP at the cell surface: able to stain different AML cell lines
[3]; HSCs in bone marrow from healthy donors, n=5
  RFI: < 1.2
[3]; monocyte subpopulation, weak staining in 2/5 peripheral blood and 3/5 bone marrow from healthy donors
  RFI: < 2
[4]
  recognition of cell surface IL-1RAP on HMEC-1: not recognized
